Molecular target: freshly isolated human LDL (human)
Experiment: ELISA

B1: rabbit SAMD1 fragment from a.a. 238 to the C-terminus end at a.a. 550 (domain or fragment)
chain: QQPQPPPEGGAARAGGPARPVSLREVVRYLGGSSGAGGRLTRGRVQGLLEEEAAARGRLERTRLGALALPRGDRPGRAPPAASARAARNKRAGEERVLEKEEEEEEEEDDEDDDDDVVSEGSEVPESDRPAGAQHHQLNGGERGPQTAKERAKEWSLCGPHPGQEEGRGPAAGSGTRQVFSMAALSKEGGSASSTTGPDSPSPVPLPPGKPALPGADGTPFGCPAGRKEKPADPVEWTVMDVVEYFTEAGFPEQATAFQEQEIDGKSLLLMQRTDVLTGLSIRLGPALKIYEHHIKVLQQGHFEDDDPEGFLG
**Q.** Which Kd does the source give for B1 here?
**A.** 15 nM

— article doi:10.1101/2021.09.12.459413
